Measured values taken from US6461867.

Biological target: VSV-7 peptide (Vesicular stomatitis virus)

B1: soluble H-2K^b (K^bsol), empty heterodimer of truncated K^b heavy chain and murine β-2 microglobulin (other)
alpha: GPHSLRYFVTAVSRPGLGEPRYMEVGYVDDTEFVRFDSDAENPRYEPRARWMEQEGPEYWERETQKAKGNEQSFRVDLRTLLGYYNQSKGGSHTIQVISGCEVGSDGRLLRGYQQYAYDGCDYIALNEDLKTWTAADMAALITKHKWEQAGEAERLRAYLEGTCVEWLRRYLKNGNATLLRTDSPKAHVTHHSRPEDKVTLRCWALGFYPADITLTWQLNGEELIQDMELVETRPAGDGTFQKWASVVVPLGKEQYYTCHVYHQGLPEPLTLRW
beta: IQKTPQIQVYSRHPPENGKPNILNCYVTQFHPPHIEIQMLKNGKKIPKVEMSDMSFSKDWSFYILAHTEFTPTETDTYACRVKHASMAEPKTVYWDRDM
- Kd: 53 nM
